Data set [1] concerns HuR (HeLa lysate) (human (HeLa)). Briefly: pull-down. As to conditions: biotin-UTP, ITC: 10 mM Tris pH 8.0, 100 mM NaCl, 25 C, UV-crosslinking EMSA: 50 mM Tris pH 7.0, 150 mM NaCl, 0.25 mg/ml tRNA, 0.025 mg/ml BSA, pull-down: 1 ug RNA …. In general terms: A gel shift assay detects complexes by their altered migration in electrophoresis.
In data set [2] the target is HuR (ITC, SUMO tag removed) (UniProt Q15717 1-326). In words: ITC; ITC: 10 mM Tris pH 8.0, 100 mM NaCl, 25 C; UV-crosslinking EMSA: 50 mM Tris pH 7.0, 150 mM NaCl, 0.25 mg/ml tRNA, 0.025 mg/ml BSA, 25 C; pull-down: 1 ug RNA, 100 ug cytoplasmic extract, room temperature, 30 min. As to conditions: protein: recombinant; tags: N-terminal 6xHis-SUMO removed by Ulp1.

By Kd is commonly meant the free concentration of one partner at which half of the binding sites on the other are occupied at equilibrium, for simple one-to-one binding.

Sequence of HuR (ITC, SUMO tag removed) (Q15717 whole entry): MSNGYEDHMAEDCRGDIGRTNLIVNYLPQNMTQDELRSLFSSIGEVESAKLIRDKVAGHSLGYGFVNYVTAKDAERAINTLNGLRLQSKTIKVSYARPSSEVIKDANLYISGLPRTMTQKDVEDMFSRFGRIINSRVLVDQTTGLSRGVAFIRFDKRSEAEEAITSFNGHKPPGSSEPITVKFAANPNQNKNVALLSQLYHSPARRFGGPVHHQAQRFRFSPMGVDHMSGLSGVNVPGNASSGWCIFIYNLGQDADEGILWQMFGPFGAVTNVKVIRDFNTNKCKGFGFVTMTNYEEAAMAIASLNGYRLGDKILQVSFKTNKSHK

In data set [1], TERC U40A gave a binding signal (% reduction vs WT) of 70.7.

Take TERC U100A: in data set [1], the binding signal (% reduction vs WT) was found to be 70.4. Regarding GUUUUUCUCG (ssRNA) [TERC 98-107 oligo (GUUUUUC motif)], the Kd in data set [2] was approximately 70.4 nM. Regarding CUAGACUAGGACUC (ssRNA) [ITC negative control RNA], the binding result in data set [2] is “no binding”. With AUUUUUUGUCU (ssRNA) [TERC 37-47 oligo (UUUUUU motif)], the Kd in data set [2] was approximately 24.3 nM.

(Values after PMC5992219, “HuR regulates telomerase activity through TERC methylation”.)
